This note sets out measurements from US20250340661A1, “ANTI CD40 ANTIBODY, ANTIGEN BINDING FRAGMENT AND MEDICAL USE THEREOF” (Jiangsu Hengrui Pharmaceuticals Co., Ltd., priority 2021, published 2025).

The target in experiment [1] is his-tagged human CD40 (h-CD40-his) recombinant protein (human) (UniProt P25942). The experiment in a line: SPR (Biacore), antibody captured on anti-human Fc chip, His-tagged CD40 as analyte, 1:1 model. (In general: Surface plasmon resonance follows binding to a sensor surface in real time, without labels.)
Experiment [2] concerns the target human CD40 on the cell surface (human) (UniProt P25942). The experiment in a line: flow cytometry on Raji cells, Alexa Fluor 488 anti-human IgG (H+L) detection. On the technique in general: In flow cytometry, cells or beads pass a laser one at a time.
For experiment [3] the target is unchanged. The experiment in a line: cell-based or functional assay.
Experiment [4] shares this target. Briefly: flow cytometry on Raji cells, AF647 anti-human IgG detection.

Chain of human CD40 on the cell surface (human) (P25942 21-277): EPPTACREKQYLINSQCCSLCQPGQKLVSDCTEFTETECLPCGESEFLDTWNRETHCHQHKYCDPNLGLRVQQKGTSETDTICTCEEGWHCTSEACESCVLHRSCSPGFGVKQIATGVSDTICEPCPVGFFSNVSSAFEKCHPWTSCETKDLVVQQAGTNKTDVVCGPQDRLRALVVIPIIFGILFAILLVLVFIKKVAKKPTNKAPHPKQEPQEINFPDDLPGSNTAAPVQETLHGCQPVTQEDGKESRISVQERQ
Chain of his-tagged human CD40 (h-CD40-his) recombinant protein (human) (P25942 21-193 limits assumed): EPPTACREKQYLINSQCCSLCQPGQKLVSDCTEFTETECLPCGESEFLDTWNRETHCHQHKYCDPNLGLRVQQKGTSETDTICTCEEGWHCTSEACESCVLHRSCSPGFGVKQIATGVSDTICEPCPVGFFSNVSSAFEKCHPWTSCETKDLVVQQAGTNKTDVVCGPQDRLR

Usually Kd stands for the equilibrium constant for the complex coming apart. For orientation: koff means the rate constant with which the complex falls apart. Usually kon stands for a measure of how fast the partners come together. What is called EC50 is the concentration needed to bring the measured effect to its halfway point. The low end stands for greater potency, the high end for weaker potency. Regarding “anti-CD40 antagonistic antibody CFZ533 (iscalimab)”, in experiment [1], the Kd came out at 205 pM, the koff is 0.000141 s⁻¹ and the kon is 688000 M⁻¹ s⁻¹. Moreover, in experiment [2], the EC50 came to 1010 pM. Also, in experiment [3], the B cell activation assay, CD19+CD69+ % IC50 worked out at 140 pM; the B cell activation assay, CD19+CD69+ % Maximum inhibition rate turned out to be 95%; the B cell activation assay, CD19+CD69+ MFI IC50 came to 70 pM; the B cell activation assay, CD19+CD69+ MFI Maximum inhibition rate is 110%. In experiment [3], this substance returned an IC50 for the inhibition of CD40 reporter gene cell activity (Assay 1) of 360 pM; an IC50 for the inhibition of CD40 reporter gene cell activity (Assay 2) of 350 pM; an IC50 in DC cell activation assay system, CD80 MFI of 1190 pM; an IC50 in DC cell activation assay system, CD86 MFI of 1930 pM. In experiment [3], this substance gave an IC50 in DC cell activation assay system, IL-12/23 p40 of 680 pM; an IC50 in DC cell activation assay system, TNFα of 350 pM; a reporter gene cell activity IC50 (HEK-Blue CD40L cells, SEAP) of 272 pM. In experiment [4], this substance came in with an EC50 of 2410 pM.
